Two molecules from patent publication US20220411523A1 (HEFEI HANKEMAB BIOTECHNOLOGY, published 2022) can be followed below.

In experiment [1] the target is T1, human 4-1BB (SEQ ID No.5), coated on the ELISA plate (human, UniProt Q07011 24-186, limits assumed).
T1 construct: also called CD137
Kind of experiment: ELISA, coated human 4-1BB. Background: An ELISA detects its analyte on a solid surface through an enzyme-linked reagent.

In experiment [2] the target is T2, monkey 4-1BB (Cy4-1BB) (SEQ ID No.6), coated on the ELISA plate (monkey, UniProt Q07011 24-186 (human entry), limits assumed).
T2 chain: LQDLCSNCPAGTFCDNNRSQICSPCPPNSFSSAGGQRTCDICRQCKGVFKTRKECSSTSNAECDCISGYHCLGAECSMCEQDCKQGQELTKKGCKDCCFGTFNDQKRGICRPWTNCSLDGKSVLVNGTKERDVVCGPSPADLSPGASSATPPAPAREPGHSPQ
Kind of experiment: ELISA, coated monkey 4-1BB.

In experiment [3] the target is T3, monkey 4-1BB on the cell membrane surface of CHO-K1 cells (monkey, UniProt Q07011 24-255 (human entry)).
T3 construct: also called CHO-K1-cy4-1BB
T3 chain: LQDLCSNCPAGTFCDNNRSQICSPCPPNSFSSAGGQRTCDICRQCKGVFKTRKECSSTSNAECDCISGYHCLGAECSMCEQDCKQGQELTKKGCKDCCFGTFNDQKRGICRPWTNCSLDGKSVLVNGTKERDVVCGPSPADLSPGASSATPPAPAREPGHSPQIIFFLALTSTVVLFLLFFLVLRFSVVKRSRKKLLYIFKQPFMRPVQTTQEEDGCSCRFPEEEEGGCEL
Kind of experiment: FACS, CHO-K1-cy4-1BB cells. (A flow cytometer gives signals particle by particle.)

Experiment [4] addresses T4, human 4-1BB full length, on the cell surface (human, UniProt Q07011 24-255).
T4 construct: also called CHO-K1-hu4-1BB; WT (Human 4-1BB full length, Expi293 transient)
Kind of experiment: FACS, CHO-K1-hu4-1BB cells.

The target in experiment [5] is T4, human 4-1BB full length, on the cell …. Kind of experiment: FACS, CHO-K1-hu4-1BB cells. This is another data set of the same source.
The target of experiment [6] is T5, h4-1BB-His antigen (Acro company, product number: Q07011-1) (human, UniProt Q07011 24-186).
T5 construct: Q07011-1 is printed as a product number; not shown: His tag
T5 sequence (Q07011 24-186, one chain of several): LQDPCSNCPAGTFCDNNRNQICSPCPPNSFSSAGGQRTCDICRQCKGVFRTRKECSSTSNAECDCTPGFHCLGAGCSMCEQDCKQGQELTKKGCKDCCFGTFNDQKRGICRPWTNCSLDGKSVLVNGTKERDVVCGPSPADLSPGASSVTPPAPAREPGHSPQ
The experiment is described as follows: BLI (Fortebio), h4-1BB-His. (In BLI a coated tip is dipped into the sample, and binding shifts an interference pattern.)

In experiment [7] the target is T4, human 4-1BB full length, on the cell …. Kind of experiment: FACS competition, CHO-K1-hu4-1BB; labelled Bio-4-1BBL 2 µg/ml fixed, competitor varied.
Experiment [8] has the same target. Kind of experiment: FACS competition, CHO-K1-hu4-1BB; labelled Bio-Hanke10F4 1.5 µg/ml fixed, competitor varied.
Experiment [9] has the same target. The description is as above. The source holds these as a separate data set.
Experiment [10] has the same target. Kind of experiment: FACS (MFI) on cells transiently transfected with human 4-1BB WT, antibody titrated from about 0.04 to 10 µg/ml.
Experiment [11] deals with T6, human 4-1BB N42R, on the cell surface (human, UniProt Q07011 24-255).
T6 construct: Point mutant of human 4-1BB on transiently transfected cells
The experiment is described as follows: FACS (MFI) on cells transiently transfected with human 4-1BB N42R, antibody titrated from about 0.04 to 10 µg/ml.

Experiment [12] has as its target T7, human 4-1BB I132R, on the cell surface (human, UniProt Q07011 24-255).
T7 construct: Point mutant of human 4-1BB on transiently transfected cells
Kind of experiment: FACS (MFI) on cells transiently transfected with human 4-1BB I132R, antibody titrated from about 0.04 to 10 µg/ml.

Experiment [13] concerns the target T8, human 4-1BB M101R, on the cell surface (human, UniProt Q07011 24-255).
T8 construct: Point mutant of human 4-1BB on transiently transfected cells
Kind of experiment: FACS (MFI) on cells transiently transfected with human 4-1BB M101R, antibody titrated from about 0.04 to 10 µg/ml.

Like-named read-outs stand apart in the source and are kept apart here.

T1 sequence (Q07011 24-186 limits assumed): as the sequence (Q07011 24-186, one chain of several) above

B1: Hanke10F4 (antibody, human IgG4 S228P, kappa, V domains shown)
VH: QVQLQESGPGLVKPSETLSITCTVSGSSLTSYGVHWVRQPPGKGLEGLGVIWPGGSTNYNSALMSRLTISKDNSKSQVSLKMSSLTAADTAMYYCARVTGTWYFDVWGQGTTVTVSS
VL: DIQMTQSPSSLSASLGDRVTISCSASQGISNYLNWYQQKPDGTVKLLIYYTSTLHSGVPSRFSGSGSGTDFTLTISSLQPEDVATYYCQQYSKLPWTFGGGTKLEIKR
notes: Heavy chain type IgG4, light chain kappa; Humanized from hybridoma antibody 37G10F4, transformed from scFvB60103; also called humanized anti-human 4-1BB antibody Hanke10F4; Hanke10F4 monoclonal antibody
By EC50 is commonly meant the concentration needed to bring the measured effect to its halfway point. For orientation: Kd means a measure of binding affinity in units of concentration. By koff is commonly meant a measure of how fast the partners let go of each other. Broadly, the kon is the rate constant with which the complex forms. The EC50 (read off the curve) is the concentration at which the effect is half-maximal. In the case of B1, it took 0.0186 µg/mL to reach a half-maximal effect in experiment [1] (EC50). Moreover, a half-maximal effect in [2] (EC50) was put at 0.0267 µg/mL. In addition, the EC50 in experiment [3] was 1.81 µg/mL. In experiment [4], this molecule had an EC50 of 1.77 µg/mL. Further, it took 1.6 µg/mL to reach a half-maximal effect in experiment [5] (EC50). Further, in experiment [6], the Kd amounted to 13.9 nM, the koff worked out at 0.00241 s⁻¹ and the kon was 173000 M⁻¹ s⁻¹. Besides, in experiment [7], the “FACS signal of Bio-4-1BBL at (B:A) Ratio 0.03906” value turned out to be 7700, the “FACS signal of Bio-4-1BBL at (B:A) Ratio 0.15625” value is 7460, the “FACS signal of Bio-4-1BBL at (B:A) Ratio 0.625” value worked out at 6920 and the “FACS signal of Bio-4-1BBL at (B:A) Ratio 2.5” value came to 5860. Further, in [7], the “FACS signal of Bio-4-1BBL at (B:A) Ratio 10” value came out at 4310 and the “FACS signal of Bio-4-1BBL at (B:A) Ratio 40” value came out at 3510. Moreover, in experiment [8], the “FACS signal of Bio-Hanke10F4 at (B:A) Ratio 0.058593” value amounted to 7260, the “FACS signal of Bio-Hanke10F4 at (B:A) Ratio 0.23437” value worked out at 6840, the “FACS signal of Bio-Hanke10F4 at (B:A) Ratio 0.9375” value stood at 5000 and the “FACS signal of Bio-Hanke10F4 at (B:A) Ratio 3.75” value turned out to be 1740. Further, in experiment [8], the “FACS signal of Bio-Hanke10F4 at (B:A) Ratio 15” value was 635 and the “FACS signal of Bio-Hanke10F4 at (B:A) Ratio 60” value amounted to 230. Moreover, in experiment [9], the “FACS signal of Bio-Hanke10F4 at (B:A) Ratio 0.05859375” value stood at 7260, the “FACS signal of Bio-Hanke10F4 at (B:A) Ratio 0.234375” value amounted to 6840, the “FACS signal of Bio-Hanke10F4 at (B:A) Ratio 0.9375” value came to 5000 and the “FACS signal of Bio-Hanke10F4 at (B:A) Ratio 3.75” value was 1740. Also, in experiment [9], the “FACS signal of Bio-Hanke10F4 at (B:A) Ratio 15” value was found to be 635 and the “FACS signal of Bio-Hanke10F4 at (B:A) Ratio 60” value worked out at 230. For the same molecule, the “EC50 (read off the curve)” value in [10] is approximately 0.7 µg/mL. The concentration giving a half-maximal response (EC50 (read off the curve)) in [11] is approximately 0.7 µg/mL. The “EC50 (read off the curve)” value in experiment [12] was approximately 0.7 µg/mL. Further, the “EC50 (read off the curve)” value in experiment [13] was approximately 0.7 µg/mL.

B2: HKB6 (antibody, V domains shown)
VH: QVQLKESGPGLVAPSQSLSITCTVSGFSLTTYDISWIRQPPGKGLEWLGVIWTGGGTNYNSTFMSRLSINKDNSKSQVFLKMNSLQTDDTAIYYCVRVDYWGQGTSVTVSS
VL: DVVMTQTPLSLPVSLGDQASISCRSSQSLVHSNGNTYLHWFLQKPGQSPKLLIYKVSNRFPGVPDRFSGSGSGTDFTLKISRVEAEDLGVYFCSQNTHVPWTFGGGTKLEIKR
In the case of B2, in [5], the EC50 came out at 1.8 µg/mL.
